In publication PMC3229523, “Identification of Lactoferricin B Intracellular Targets Using an Escherichia coli Proteome Chip” (PLoS ONE, 2011):
Ends that are not written are not given here. * marks the point of attachment. Biotin = O=C1N[C@H]2[C@H](CS[C@H]2CCCCC(=O)*)N1

Tests used:
Assay in all cases: peptide or protein array; E. coli proteome chip: purified His-tagged proteins printed in duplicate on Fullmoon slides, blocked with 1% BSA; 10 nM N-terminal biotinylated LfcinB with 1% BSA, room temperature, 1 h; detected with DyLight 649-labeled streptavidin, ratio to DyLight 549-labeled anti-His antibody; ProCAT normalisation, local cut-off; triplicate chips
Conditions in all cases: both partners purified
ArgH = target: T1, ArgH (E. coli K-12, UniProt P11447 1-457)
T1 construct: ArgH, E. coli K-12
T1 sequence (looked up): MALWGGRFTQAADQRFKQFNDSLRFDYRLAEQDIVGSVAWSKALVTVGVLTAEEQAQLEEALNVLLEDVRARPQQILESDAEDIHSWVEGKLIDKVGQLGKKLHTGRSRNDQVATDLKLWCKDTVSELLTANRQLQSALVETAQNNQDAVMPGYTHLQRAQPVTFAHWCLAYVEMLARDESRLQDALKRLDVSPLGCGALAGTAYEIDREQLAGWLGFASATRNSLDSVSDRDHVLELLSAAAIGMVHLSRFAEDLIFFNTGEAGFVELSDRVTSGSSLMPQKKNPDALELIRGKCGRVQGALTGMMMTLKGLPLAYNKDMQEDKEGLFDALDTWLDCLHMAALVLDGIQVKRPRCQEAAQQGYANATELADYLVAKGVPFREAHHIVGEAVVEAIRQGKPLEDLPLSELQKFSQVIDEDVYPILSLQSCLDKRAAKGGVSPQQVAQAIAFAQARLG

ThiF = target: T2, ThiF (E. coli K-12, UniProt P30138 1-251)
T2 construct: ThiF, E. coli K-12
T2 sequence (looked up): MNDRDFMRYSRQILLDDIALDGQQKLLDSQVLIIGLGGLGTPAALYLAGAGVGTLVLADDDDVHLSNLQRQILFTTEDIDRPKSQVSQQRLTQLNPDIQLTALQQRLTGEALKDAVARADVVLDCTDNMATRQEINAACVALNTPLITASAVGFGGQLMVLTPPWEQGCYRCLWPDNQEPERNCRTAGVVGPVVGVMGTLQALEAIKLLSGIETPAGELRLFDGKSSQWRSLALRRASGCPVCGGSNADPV

RecC = target: T3, RecC (E. coli K-12, UniProt P07648 1-1122)
T3 construct: RecC, E. coli K-12
T3 sequence (looked up): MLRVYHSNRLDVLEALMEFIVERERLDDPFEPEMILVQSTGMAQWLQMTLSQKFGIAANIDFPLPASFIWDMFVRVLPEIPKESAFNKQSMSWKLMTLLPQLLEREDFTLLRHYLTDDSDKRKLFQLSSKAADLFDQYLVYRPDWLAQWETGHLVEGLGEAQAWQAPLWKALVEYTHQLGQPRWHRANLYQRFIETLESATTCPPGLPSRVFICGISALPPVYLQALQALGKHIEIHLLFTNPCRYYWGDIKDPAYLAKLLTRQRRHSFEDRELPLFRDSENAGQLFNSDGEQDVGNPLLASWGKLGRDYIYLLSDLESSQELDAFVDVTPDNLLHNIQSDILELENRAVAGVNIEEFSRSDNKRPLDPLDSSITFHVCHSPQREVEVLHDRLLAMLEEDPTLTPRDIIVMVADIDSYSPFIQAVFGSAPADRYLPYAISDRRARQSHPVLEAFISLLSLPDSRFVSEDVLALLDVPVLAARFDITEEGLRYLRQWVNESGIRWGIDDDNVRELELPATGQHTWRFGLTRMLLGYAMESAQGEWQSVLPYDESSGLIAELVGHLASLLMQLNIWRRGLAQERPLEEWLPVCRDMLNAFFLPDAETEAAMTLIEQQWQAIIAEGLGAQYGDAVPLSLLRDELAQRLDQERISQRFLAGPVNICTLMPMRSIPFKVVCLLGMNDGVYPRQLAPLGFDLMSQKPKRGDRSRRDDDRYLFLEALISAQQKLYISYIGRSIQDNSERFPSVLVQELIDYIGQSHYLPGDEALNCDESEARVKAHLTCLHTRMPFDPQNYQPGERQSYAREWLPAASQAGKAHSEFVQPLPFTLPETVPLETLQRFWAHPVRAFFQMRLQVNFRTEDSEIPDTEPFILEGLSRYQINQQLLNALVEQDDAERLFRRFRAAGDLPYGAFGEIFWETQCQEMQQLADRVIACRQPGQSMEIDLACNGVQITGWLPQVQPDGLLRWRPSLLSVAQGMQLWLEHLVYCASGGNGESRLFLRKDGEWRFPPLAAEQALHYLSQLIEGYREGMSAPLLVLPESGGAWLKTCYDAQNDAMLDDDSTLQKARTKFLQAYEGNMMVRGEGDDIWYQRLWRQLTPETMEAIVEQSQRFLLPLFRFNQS

YbcQ = target: T4, YbcQ (E. coli K-12, UniProt Q47274 1-127)
T4 construct: YbcQ, E. coli K-12
T4 sequence (looked up): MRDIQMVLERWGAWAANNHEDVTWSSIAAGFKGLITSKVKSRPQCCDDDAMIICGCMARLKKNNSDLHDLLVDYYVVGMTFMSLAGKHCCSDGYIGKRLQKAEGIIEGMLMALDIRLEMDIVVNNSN

YcaO = target: T5, YcaO (E. coli K-12, UniProt P75838 1-586)
T5 construct: YcaO, E. coli K-12

Measured: binding result

T5 sequence (P75838 whole entry): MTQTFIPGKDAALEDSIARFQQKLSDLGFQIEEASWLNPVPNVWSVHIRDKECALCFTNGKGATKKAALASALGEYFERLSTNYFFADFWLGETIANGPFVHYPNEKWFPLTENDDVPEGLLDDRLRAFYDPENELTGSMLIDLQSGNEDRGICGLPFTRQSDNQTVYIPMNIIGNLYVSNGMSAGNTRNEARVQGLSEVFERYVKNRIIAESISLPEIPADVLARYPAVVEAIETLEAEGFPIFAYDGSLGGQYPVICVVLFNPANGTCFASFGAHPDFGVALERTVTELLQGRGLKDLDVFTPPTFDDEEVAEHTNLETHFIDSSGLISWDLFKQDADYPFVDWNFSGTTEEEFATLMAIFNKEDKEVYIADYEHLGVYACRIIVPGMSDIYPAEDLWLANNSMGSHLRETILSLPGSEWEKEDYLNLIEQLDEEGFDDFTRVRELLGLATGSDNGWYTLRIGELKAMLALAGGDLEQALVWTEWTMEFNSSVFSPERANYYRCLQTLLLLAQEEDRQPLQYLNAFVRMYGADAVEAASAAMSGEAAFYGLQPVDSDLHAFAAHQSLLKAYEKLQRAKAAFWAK

B1: N-terminal biotinylated Lactoferricin B (peptide, UniProt P24627 36-60, looked up)
peptide: Biotin-FKCRRWQWRMKKLGAPSITCVRRAF
modifications: ends and bridges not checked
notes: lactoferricin B (LfcinB), cationic antimicrobial peptide of 25 amino acids; also called biotinylated LfcinB; biotin-labeled LfcinB; source: bought: Kelowna Inc
binds: all assays above
